Results from publication PMC7746861, “Acetate Metabolism in Archaea: Characterization of an Acetate Transporter and of Enzymes Involved in Acetate Activation and Gluconeogenesis in Haloferax volcanii” (Frontiers in Microbiology, 2020).
Like-named read-outs stand apart in the source and are kept apart here. One block for each molecule: values may come before it.

Key:
[1] = target: Malic enzyme Mae1 from Haloferax volcanii, recombinant (Haloferax volcanii); assay: SEC; Superdex 200 HiLoad column (1.6 x 60 cm), flow rate 1 ml per min, calibrated with HMW and LMW kits (GE Healthcare); native mass compared with the subunit mass by SDS-PAGE; 50 mM Tris-HCl, pH 7.5, 1.5 M KCl
[2] = substrate: CC(=O)O; assay: purified protein; conditions: acetate activation, ATP, CoA
[3] = substrate: CC(C)(COP(=O)(O)OP(=O)(O)OC[C@H]1O[C@@H](n2cnc3c(N)ncnc32)[C@H](O)[C@@H]1OP(=O)(O)O)[C@@H](O)C(=O)NCCC(=O)NCCS; assay: purified protein; format: biochemical, Haloferax volcanii; conditions: acetate activation, ATP, CoA
[4] = substrate: Nc1ncnc2c1ncn2[C@@H]1O[C@H](COP(=O)(O)OP(=O)(O)OP(=O)(O)O)[C@@H](O)[C@H]1O; assay: purified protein; format: biochemical, Haloferax volcanii; conditions: acetate activation, ATP, CoA
[5] = target: the molecule itself; assay: SEC; Superdex 200 HiLoad column (1.6 x 60 cm), flow rate 1 ml per min, calibrated with HMW and LMW kits (GE Healthcare); native mass compared with the subunit mass by SDS-PAGE; 50 mM Tris-HCl, pH 7.5, 1.5 M KCl
[6] = target: the molecule itself; assay: as above; remark: listed apart in the source
[7] = substrate: CC(=O)SCCNC(=O)CCNC(=O)[C@H](O)C(C)(C)COP(=O)(O)OP(=O)(O)OC[C@H]1O[C@@H](n2cnc3c(N)ncnc32)[C@H](O)[C@@H]1OP(=O)(O)O; assay: purified protein; format: biochemical, Haloferax volcanii; conditions: acetate formation (reverse), AMP, PPi, MgCl2, 2 M KCl, pH 7.0, 42°C
[8] = substrate: O=C(O)C[C@H](O)C(=O)O; assay: purified protein; conditions: NADP+, MnCl2, 4 M KCl, pH 5.75, 42°C, pH 5.75
[9] = substrate: NC(=O)C1=CN([C@@H]2O[C@H](COP(=O)(O)OP(=O)(O)OC[C@H]3O[C@@H](n4cnc5c(N)ncnc54)[C@H](OP(=O)(O)O)[C@@H]3O)[C@@H](O)[C@H]2O)C=CC1; assay: purified protein; format: biochemical, Haloferax volcanii; conditions: reverse reaction, pyruvate, NaHCO3, MnCl2, 4 M KCl, pH 5.75, 42°C, varied: cofactor
[10] = substrate: NC(=O)c1ccc[n+]([C@@H]2O[C@H](COP(=O)(O)OP(=O)(O)OC[C@H]3O[C@@H](n4cnc5c(N)ncnc54)[C@H](OP(=O)(O)O)[C@@H]3O)[C@@H](O)[C@H]2O)c1; assay: purified protein; format: biochemical, Haloferax volcanii; conditions: L-malate, MnCl2, 4 M KCl, pH 5.75, 42°C, varied: cofactor
[11] = recombinant, MgCl2, 2 M KCl, pH 7.5, 42°C, pH 7.5
[12] = recombinant, MgCl2, 2 M KCl, pH 7.5, 42°C
[13] = MgCl2, 1 M KCl, pH 7.0, 42°C, pH 7.0

stoichiometry N [1]: 8
Molecule: Malic enzyme Mae1 from Haloferax volcanii, recombinant

B1: ACS2 (Haloferax volcanii DS2) (protein)
chain: MKKPLLVTEFLDRARRYYGDEEAVVATTGERFTYDELGERADGFSAALQSRGVEKGDRVAVLDPNTHYHLEAAYGSMQLGAVHMPLNYRLVPADFEYVLNDADVTAVYADYAFAEKIDAVRDEIPAEIFVTNDPEKAAESTDGEWLDFDELVAESTDYERPEMDEDDIITINYTSGTTGDPKGVCRTHRAETIHAYLISMHQDIGDDDVYLWTLPMFHVNGWGHIYAITGHGAKHVCTRGVEAEAVLDAIRDEDVSYLCAAPTVLNILMKHYREEGGVETTGASPVRAATAGAAPPEATIRTVEDEFGWRLMHVYGATETGPLITTSEAGRYLTDGDDRFGVKKKQGIGYLGTDVRVVDEDGTDVPRDEQSVGEIVVTGNQVMEKYWNKPEETEEAFSARLEGYYHMGDLAVVDENGFISIQDRKKDIIISGGENISSIELEDTLFDHDEVADVAVIPVPSDEWGESPKAFVVPTSGDPDAPGVTAEALIAFCRERIATYKVPKEVEFVTELPKTATGKVQKYELREREWEDEGRMMGEG
notes: full length, Ni-NTA purified (pTA963), homologous expression in H. volcanii
Km [2, 11]: 1500 µM
Vmax [2, 11]: 1.5 µmol/min/mg
Km [3, 12]: 2210 µM
Km [4, 12]: 430 µM

B2: AMP-forming acetyl-CoA synthetase ACS2 purified from acetate-grown Haloferax volcanii cells (enzyme, UniProt D4GUW5 1-540, looked up)
chain: MKKPLLVTEFLDRARRYYGDEEAVVATTGERFTYDELGERADGFSAALQSRGVEKGDRVAVLDPNTHYHLEAAYGSMQLGAVHMPLNYRLVPADFEYVLNDADVTAVYADYAFAEKIDAVRDEIPAEIFVTNDPEKAAESTDGEWLDFDELVAESTDYERPEMDEDDIITINYTSGTTGDPKGVCRTHRAETIHAYLISMHQDIGDDDVYLWTLPMFHVNGWGHIYAITGHGAKHVCTRGVEAEAVLDAIRDEDVSYLCAAPTVLNILMKHYREEGGVETTGASPVRAATAGAAPPEATIRTVEDEFGWRLMHVYGATETGPLITTSEAGRYLTDGDDRFGVKKKQGIGYLGTDVRVVDEDGTDVPRDEQSVGEIVVTGNQVMEKYWNKPEETEEAFSARLEGYYHMGDLAVVDENGFISIQDRKKDIIISGGENISSIELEDTLFDHDEVADVAVIPVPSDEWGESPKAFVVPTSGDPDAPGVTAEALIAFCRERIATYKVPKEVEFVTELPKTATGKVQKYELREREWEDEGRMMGEG
notes: AMP-forming acetyl-CoA synthetase ACS2 of Haloferax volcanii, gene acs2, locus tag HVO_0896; identified by MALDI-TOF MS of the 69 kDa subunit; Native enzyme, no tag; also called HVO_0896
stoichiometry N [5]: 2

B3: AMP-forming acetyl-CoA synthetase ACS2 from Haloferax volcanii, recombinant (enzyme, UniProt D4GUW5 1-540, looked up)
chain: MKKPLLVTEFLDRARRYYGDEEAVVATTGERFTYDELGERADGFSAALQSRGVEKGDRVAVLDPNTHYHLEAAYGSMQLGAVHMPLNYRLVPADFEYVLNDADVTAVYADYAFAEKIDAVRDEIPAEIFVTNDPEKAAESTDGEWLDFDELVAESTDYERPEMDEDDIITINYTSGTTGDPKGVCRTHRAETIHAYLISMHQDIGDDDVYLWTLPMFHVNGWGHIYAITGHGAKHVCTRGVEAEAVLDAIRDEDVSYLCAAPTVLNILMKHYREEGGVETTGASPVRAATAGAAPPEATIRTVEDEFGWRLMHVYGATETGPLITTSEAGRYLTDGDDRFGVKKKQGIGYLGTDVRVVDEDGTDVPRDEQSVGEIVVTGNQVMEKYWNKPEETEEAFSARLEGYYHMGDLAVVDENGFISIQDRKKDIIISGGENISSIELEDTLFDHDEVADVAVIPVPSDEWGESPKAFVVPTSGDPDAPGVTAEALIAFCRERIATYKVPKEVEFVTELPKTATGKVQKYELREREWEDEGRMMGEG
notes: AMP-forming acetyl-CoA synthetase ACS2 of Haloferax volcanii, gene acs2, locus tag HVO_0896; calculated subunit 59.8 kDa; gene amplified from genomic DNA; also called recombinant ACS2; HVO_0896; source: H. volcanii H1209 (plasmid pTA963, homologous overexpression), purified (Ni-NTA, size exclusion chromatography)
stoichiometry N [6]: 2

B4: AMP-forming acetyl-CoA synthetase ACS9 from Haloferax volcanii, recombinant (enzyme, UniProt D4GRL3 1-538, looked up)
chain: MKKQLLVTDFLDRARTYYGDYEAVVGVDGERFTYAEFGERVDRFSAALQSRGVEKGDRVAVLDPNTHYHLEAAFGAMQCGALHVPLNYRLTTDDYEYLLSDSGATVVYADYQYAGKIEAVRDDVPAEVFVTNDPAAVDGDWLDFEAFLDEADADDYERPEMSEDELITINYTSGTTGDPKGVCRTHRTESLHAQLVTIHHHIGDDDVYLWTLPMFHVNGWGHIYAVTGRGAKHVCTRGVEAEAVFDAITEEDVSFFCCAPTVLSILREYAEEHDPAYAGDNPVRVTAAGSAAPSATIRHTESEFGWEFTQLYGATETGPLIATSDANRLIPDEGGLRFSLKQRQGVAPLGTDLRVVDDDGEQVPRGDATIGEVVVRGNQVMEKYWNKPDETHDAFNDRLEGWYHTGDLAVVNEDGMIAIQDRKKDIIISGGENISSVELEDALFDHDAVGDVAVIPAPSEKWGETPKAFVVPANGDVENPGVTAEELTAYTRDRLAGYKAIREFEFVAEIPKTATGKIQKYELRKREWDDEERMVGQG
notes: 59 kDa subunits; gene amplified from genomic DNA; source: H. volcanii H1209 (plasmid pTA963, homologous overexpression), purified (Ni-NTA, Superdex 200)
stoichiometry N [5]: 2

B5: AMP-forming acetyl-CoA synthetase ACS1 from Haloferax volcanii, recombinant (enzyme, UniProt D4GUW1 1-662, looked up)
chain: MADGDTELEARLVEQEEFEPSEEFVAQANVSDPAVYDEFEENWPDCWERAAEMLDWDEKYDEVLDDSNPPFYEWFTGGKLNVSYNCVDRHVENGDKNRVAIKWEGEHGETRTYTYQDLYREVNEFAAALRDLGVEEDDVVTLYMPMIPELPIAMLACARIGAPHSVVFGGFSAEALATRMNAADSRFLVTCDGYYRRGDPLDHLDKANEGLDGVDHGVDATVVVDRLGDDGFDHDLKGNQHDWDDLLDEHAGERIDPVERDAEDMLFLMYTSGTTGQPKGVKHTTGGYLAYAAWTSHAVLDIEKEDTYWCSADIGWITGHSYIVYGPLALGTTTVMYEGTPDFPNRDRLWDIIEKYAVDIFYTAPTAIRAFMKWGSRFPEQHDLSSLRLLGTVGEPINPRAWKWYYKHIGNEDCPVVDTWWQTETGGMMITTLPGIKKMKPGSAGPPLPGIDAQIVDTSGKQVDAGRAGYLTVNKPWPGMLRTLYKNDERFIQEYWQEYSDTDSDDPDDWVYFPEDGAKIDGDDYITILGRVDDVINVSGHRLGTMEIESAIVGVEGVAEAAVVGGNHEVKGEAVYAYVITEEGQDEDDEMRGRIIEGVEDAIGPIARPEMVVFTPELPKTRSGKIMRRLLEEIANGEELGDTTTLRNPEVVESIQRQVESE
notes: AMP-forming acetyl-CoA synthetase ACS1 of Haloferax volcanii, gene acs1, locus tag HVO_0894; calculated subunit 71.2 kDa; gene amplified from genomic DNA; also called HVO_0894; source: H. volcanii H1209 (plasmid pTA963, homologous overexpression), purified (Ni-NTA, Superdex 200)
stoichiometry N [6]: 2
Km [2, 13]: 90 µM
Vmax [2, 13]: 0.4 µmol/min/mg
Km ([3]; MgCl2, 1 M KCl, pH 7.0, 42°C): 730 µM
Km ([4]; MgCl2, 1 M KCl, pH 7.0, 42°C): 480 µM
Km [7]: 570 µM
Vmax [7]: 0.25 µmol/min/mg

B6: Mae1 (Haloferax volcanii DS2) (protein)
chain: MGLDDDSRKYHRQDPPGKIEIATTKPTNTQRDLSLAYSPGVAAPCLDIAEDEDAAYEYTAKGNLVGVVSNGSAVLGLGDIGAQASKPVMEGKGVLFKRFADIDVFDVELDIADVDDFVAATKAMEPTFGGINLEDIKAPECFEIERQLREQMDIPVFHDDQHGTAIISGAALLNAADIVDKDLDELDIVFSGAGASALATARFYVSLGAKKENITMCDSSGIITESRVEDGDVNKYKAEFAKPVDEGSLSDAMEGADVLAGLSVGGIVSQEMVRSMADNPVIFAMANPDPEITYEDAKDARDDTVIMATGRSDYPNQVNNVLGFPFIFRGALDVRATEINEAMKRAAAEALAELARQDVPDAVVKAYGDHPLQFGADYVIPKPLDPRVLFEVAPAVAQAAMTSGAARERLDMNAYREELEARLGKSREMMRVVLNKAKSNPKRVALAEGEDEKMIRAAYQMQEEGIAEPILVGETTTILRKAEELGLDFDPTIANPRDGEWDHYVDRLYELRQRKGVTNSEAEELVRRDSNYFASVMVEVGDADAMLTGLTHHYPSALRPPLQIIGTADDADYAAGVYMMTFKNRVVFCADTTVNLDPDEEVLAEITKHTADLARQFNVEPRAALLSYSNFGSVTNEGTRKPRDAAALLQDDPEVDFPVDGEMQADTALVEDILEGTYDFAELDGPANVLVFPNLEAGNIGYKLLQRLGGAEAIGPMLVGMDKPVHVLQRGDEVKDIVNLAATAVVDAQEE
notes: full length with C-terminal PTA domain, Ni-NTA purified, homologous expression in H. volcanii
Km [8]: 650 µM
Km [9]: 100 µM
Km [10]: 60 µM
